The series has as its target TALEN T3 pair (T3L/T3R) (artificial) (UniProt Q56830+Q56830). Put plainly: cell_activity. As to conditions: CD34+ cells.

FAM5C off-target locus registered an activity (mock 0.02%, p=0.0015, not significant in K562 or CD4+) of 0.05 % indels.
Consider CNOT10 off-target locus, for which the activity (mock 0.03%, p<0.0001, off-target) came to 0.25 % indels.

Source of the values: patent US20200392459.
